Source: IntAct's records for PubMed 9881977

B1: Early protein (Human adenovirus C serotype 5 (HAdV-5)), P03255-2 (parent)
chain: MRHIICHGGVITEEMAASLLDQLIEEVLADNLPPPSHFEPPTLHELYDLDVTAPEDPNEEAVSQIFPDSVMLAVQEGIDLLTFPPAPGSPEPPHLSRQPEQPEQRALGPVSMPNLVPEVIDLTCHEAGFPPSDDEDEEGPVSEPEPEPEPEPEPARPTRRPKMAPAILRRPTSPVSRECNSSTDSCDSGPSNTPPEIHPVVPLCPIKPVAVRVGGRRQAVECIEDLLNEPGQPLDLSCKRPRP
partner: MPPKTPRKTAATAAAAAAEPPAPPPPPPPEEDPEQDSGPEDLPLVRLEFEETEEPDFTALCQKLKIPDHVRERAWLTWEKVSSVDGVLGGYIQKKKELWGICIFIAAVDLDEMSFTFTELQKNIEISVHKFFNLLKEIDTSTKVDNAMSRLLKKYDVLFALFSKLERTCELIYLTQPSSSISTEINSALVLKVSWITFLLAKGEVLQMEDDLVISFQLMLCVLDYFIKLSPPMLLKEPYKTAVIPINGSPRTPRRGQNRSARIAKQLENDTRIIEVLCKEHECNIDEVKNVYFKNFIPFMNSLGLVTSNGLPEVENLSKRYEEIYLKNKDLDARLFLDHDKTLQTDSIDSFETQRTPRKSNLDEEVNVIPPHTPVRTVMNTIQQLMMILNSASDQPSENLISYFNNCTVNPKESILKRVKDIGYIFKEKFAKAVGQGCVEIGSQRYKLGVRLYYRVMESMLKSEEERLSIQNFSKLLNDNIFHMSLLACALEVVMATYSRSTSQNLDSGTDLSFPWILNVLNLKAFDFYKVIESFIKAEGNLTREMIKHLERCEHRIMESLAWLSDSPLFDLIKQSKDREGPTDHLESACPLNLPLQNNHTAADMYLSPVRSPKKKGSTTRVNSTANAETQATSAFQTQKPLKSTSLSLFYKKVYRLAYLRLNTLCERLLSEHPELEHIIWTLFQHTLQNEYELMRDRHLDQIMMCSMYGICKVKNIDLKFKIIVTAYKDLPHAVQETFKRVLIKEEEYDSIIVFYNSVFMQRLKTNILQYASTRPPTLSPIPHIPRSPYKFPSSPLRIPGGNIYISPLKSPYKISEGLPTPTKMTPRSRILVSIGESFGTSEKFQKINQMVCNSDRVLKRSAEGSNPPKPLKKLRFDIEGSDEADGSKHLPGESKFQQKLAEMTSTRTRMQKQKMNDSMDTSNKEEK
B2: Early protein (Human adenovirus C serotype 5 (HAdV-5)), P03255-2 (parent)
chain: B1 chain

Variants of: B1
Conditions: with rb_human RB1, P06400

Variant	effect of a mutation on the interaction
R2G	decreasing interaction

Variants of: B2
Conditions: with ep300_human EP300, Q09472
ep300_human EP300, Q09472, sequence (Q09472 whole entry): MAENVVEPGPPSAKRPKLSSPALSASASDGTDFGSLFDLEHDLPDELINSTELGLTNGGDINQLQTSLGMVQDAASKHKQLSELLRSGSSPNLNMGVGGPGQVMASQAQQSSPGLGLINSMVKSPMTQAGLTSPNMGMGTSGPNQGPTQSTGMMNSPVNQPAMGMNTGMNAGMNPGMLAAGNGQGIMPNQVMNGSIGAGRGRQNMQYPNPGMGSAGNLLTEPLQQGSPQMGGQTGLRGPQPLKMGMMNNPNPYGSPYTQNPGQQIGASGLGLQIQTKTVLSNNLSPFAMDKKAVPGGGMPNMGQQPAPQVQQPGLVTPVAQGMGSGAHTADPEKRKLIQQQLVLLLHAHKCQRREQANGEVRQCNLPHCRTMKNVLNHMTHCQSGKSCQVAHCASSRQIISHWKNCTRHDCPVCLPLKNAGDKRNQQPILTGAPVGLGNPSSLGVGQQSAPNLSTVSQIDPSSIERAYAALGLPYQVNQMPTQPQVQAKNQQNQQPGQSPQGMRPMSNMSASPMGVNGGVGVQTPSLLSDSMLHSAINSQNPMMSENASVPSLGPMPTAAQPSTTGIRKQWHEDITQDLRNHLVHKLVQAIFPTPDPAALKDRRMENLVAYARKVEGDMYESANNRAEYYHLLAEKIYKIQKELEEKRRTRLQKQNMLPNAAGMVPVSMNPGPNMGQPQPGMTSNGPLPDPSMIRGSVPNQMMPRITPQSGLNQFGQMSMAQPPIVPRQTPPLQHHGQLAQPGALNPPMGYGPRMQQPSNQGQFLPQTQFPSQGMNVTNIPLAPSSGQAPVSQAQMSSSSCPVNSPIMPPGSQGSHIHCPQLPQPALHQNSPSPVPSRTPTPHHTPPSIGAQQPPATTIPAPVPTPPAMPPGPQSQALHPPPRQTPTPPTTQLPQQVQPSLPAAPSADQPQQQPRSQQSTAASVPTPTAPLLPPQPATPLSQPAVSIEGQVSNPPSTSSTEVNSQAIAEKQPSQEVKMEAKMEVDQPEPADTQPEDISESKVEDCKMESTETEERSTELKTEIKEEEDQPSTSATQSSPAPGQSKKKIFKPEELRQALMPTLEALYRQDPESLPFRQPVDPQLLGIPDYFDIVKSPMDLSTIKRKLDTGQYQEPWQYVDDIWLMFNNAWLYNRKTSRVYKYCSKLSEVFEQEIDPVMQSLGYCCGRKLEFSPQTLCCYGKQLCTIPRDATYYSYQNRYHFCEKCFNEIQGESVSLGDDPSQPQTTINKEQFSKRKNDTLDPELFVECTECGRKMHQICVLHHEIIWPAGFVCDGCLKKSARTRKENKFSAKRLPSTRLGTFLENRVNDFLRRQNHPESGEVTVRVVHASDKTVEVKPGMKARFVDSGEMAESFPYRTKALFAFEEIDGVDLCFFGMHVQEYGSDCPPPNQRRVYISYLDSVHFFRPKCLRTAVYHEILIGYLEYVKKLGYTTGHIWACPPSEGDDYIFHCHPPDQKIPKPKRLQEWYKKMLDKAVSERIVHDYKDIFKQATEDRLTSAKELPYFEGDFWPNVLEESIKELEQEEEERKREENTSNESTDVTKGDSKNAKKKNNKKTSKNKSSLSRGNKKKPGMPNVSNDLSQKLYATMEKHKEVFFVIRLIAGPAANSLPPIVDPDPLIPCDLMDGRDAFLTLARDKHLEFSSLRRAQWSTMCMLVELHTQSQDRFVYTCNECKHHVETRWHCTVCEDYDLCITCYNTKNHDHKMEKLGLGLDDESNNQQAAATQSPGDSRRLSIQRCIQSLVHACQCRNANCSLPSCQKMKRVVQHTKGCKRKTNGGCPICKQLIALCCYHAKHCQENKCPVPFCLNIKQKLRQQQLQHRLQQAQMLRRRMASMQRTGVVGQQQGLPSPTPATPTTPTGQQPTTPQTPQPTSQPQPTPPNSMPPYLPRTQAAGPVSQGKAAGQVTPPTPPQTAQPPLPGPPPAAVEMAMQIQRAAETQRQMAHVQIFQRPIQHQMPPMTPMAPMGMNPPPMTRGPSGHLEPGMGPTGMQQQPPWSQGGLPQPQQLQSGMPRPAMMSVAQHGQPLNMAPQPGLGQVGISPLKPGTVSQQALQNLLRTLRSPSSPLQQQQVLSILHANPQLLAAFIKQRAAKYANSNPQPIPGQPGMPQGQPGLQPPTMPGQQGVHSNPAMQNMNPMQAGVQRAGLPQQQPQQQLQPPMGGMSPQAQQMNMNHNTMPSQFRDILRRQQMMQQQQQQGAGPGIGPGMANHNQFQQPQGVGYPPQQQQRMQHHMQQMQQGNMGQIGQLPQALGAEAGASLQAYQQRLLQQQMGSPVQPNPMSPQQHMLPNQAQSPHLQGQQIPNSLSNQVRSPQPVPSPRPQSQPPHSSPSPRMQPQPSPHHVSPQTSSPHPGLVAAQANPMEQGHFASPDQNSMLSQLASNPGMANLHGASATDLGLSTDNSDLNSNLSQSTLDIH

Variant	effect of a mutation on the interaction
R2G	disrupting interaction

Variants of: B2
Conditions: with stat1_human STAT1, P42224
stat1_human STAT1, P42224, sequence (P42224 whole entry): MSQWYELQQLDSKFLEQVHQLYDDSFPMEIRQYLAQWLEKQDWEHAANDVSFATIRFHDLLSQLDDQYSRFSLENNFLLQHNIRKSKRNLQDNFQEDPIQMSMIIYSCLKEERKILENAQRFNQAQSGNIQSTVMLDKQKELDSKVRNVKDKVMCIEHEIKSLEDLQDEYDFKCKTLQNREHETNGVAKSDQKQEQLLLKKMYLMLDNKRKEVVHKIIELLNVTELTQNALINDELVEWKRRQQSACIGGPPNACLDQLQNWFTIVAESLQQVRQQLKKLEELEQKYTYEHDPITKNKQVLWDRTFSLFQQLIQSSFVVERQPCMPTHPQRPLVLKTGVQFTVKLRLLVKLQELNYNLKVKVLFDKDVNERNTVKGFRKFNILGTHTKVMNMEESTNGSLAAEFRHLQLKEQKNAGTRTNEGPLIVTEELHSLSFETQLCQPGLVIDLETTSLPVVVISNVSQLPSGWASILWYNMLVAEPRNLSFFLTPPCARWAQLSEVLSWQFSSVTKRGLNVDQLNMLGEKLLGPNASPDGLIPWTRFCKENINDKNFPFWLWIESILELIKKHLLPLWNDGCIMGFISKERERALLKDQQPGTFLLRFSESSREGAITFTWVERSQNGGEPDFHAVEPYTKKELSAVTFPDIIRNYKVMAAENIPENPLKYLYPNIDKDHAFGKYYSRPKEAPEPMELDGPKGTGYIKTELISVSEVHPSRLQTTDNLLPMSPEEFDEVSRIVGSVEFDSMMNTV

Variant	effect of a mutation on the interaction
R2G	decreasing interaction
